{"source": "patent US20230227790", "molecular_target": "component B (compB) protein (I53-50B)", "experiment": "SEC-HPLC after sub-surface pipette addition and orbital agitation overnight", "data": [{"protein": "component A (compA) protein (I53-50A) fused to RSV antigen (protein) MEELFKKHKIVAVLRANSVEEAIEKAVAVFAGGVHLIEITFTVPDADTVIKALSVLKEKGAIIGAGTVTSVEQCRKAVESGAEFIVSPHLDEEISQFCKEKGVFYMPGVMTPTELVKAMKLGHTILKLFPGEVVGPQFVKAMKGPFPNVKFVPTGGVNLDNVCEWFKAGVLAVGVGSALVKGTPDEVREKAKAFVEKIRGCTE", "values": [{"measurement": "VLP assembly peak (% by HPLC)", "result": "formation of the VLP assembly (50%)"}]}]}
